No end group written: not given here.

The source of these data is patent publication US5973110A, “Cytotoxic T-lymphocyte antigen as cysteine protease inhibitor” (Bayer Corporation, priority 1995, dated 1999).

The test system of experiment [1] is cartilage proteoglycan degradation. As to conditions: at 100 uM concentrations; cited from earlier work.
Experiment [2] deals with articular cartilage explants from calf knee joints. Kind of experiment: Micro organ culture assay (MOCA): IL-1 induced proteoglycan release from articular cartilage explants. The format is cell-based. The settings on record: IL-1 induced degradation; p117 10 uM (best concentration). The source says: The assay system used for testing the peptides for inhibitory activity of proteoglycan release is a micro organ culture assay (MOCA). Papain; cetyl pyridinium chloride and chondroitin sulfate type C was purchased from Sigma Chemical Co. (St. Louis, Mo.). Interleukin 1 alpha was purchased from Collaborative Research. ABCase, chrondroitinase, ABC lyase, and keratanase were obtained from ICI. Na ^35 SO4 was purchased from NEN.
Articular cartilage explants from calf knee joints were maintained in culture in DMEM medium containing 20 uCi/ml Na ^35 SO4 for 48 hours for the incorporation of label into newly synthesized proteoglycan (PG). The radiolabelled medium was then removed, the radiolabelled explants washed 3×30 ml cold DMEM and placed into a 96 well plate with or without IL-1 (Interleukin-1 alpha, 50 U/ml) and various concentrations of p117. The explants were incubated first for 24 hours in the presence of IL-1 in order to ensure initiation of IL-1 induced auto-catalysis prior to the addition of various metalloprotease inhibitors for an additional 72 hours.
The newly synthesized radiolabelled proteoglycans released during the cultivation period were subjected to enzymatic digestion with papain. […] The filter was dried and counted after addition of 10 mls of scintillation cocktail (scintillant).

In experiment [3] the target is T1, human liver Cathepsin L (Homo sapiens, UniProt P07711). Kind of experiment: Cathepsin L assay (fluorescence, Z-Phe-Arg-AMC hydrolysis). In kind it is biochemical. Details: from tissue; b54 says 'human kidney cell cathepsins'.
Target sequence in this assay (P07711 114-288 limits assumed): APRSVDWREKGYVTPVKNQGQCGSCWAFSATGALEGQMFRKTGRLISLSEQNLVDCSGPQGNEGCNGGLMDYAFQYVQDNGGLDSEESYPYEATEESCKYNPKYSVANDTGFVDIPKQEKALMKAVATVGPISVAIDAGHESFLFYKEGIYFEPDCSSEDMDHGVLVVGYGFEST
Target sequence in this assay (P07711 292-333 limits assumed): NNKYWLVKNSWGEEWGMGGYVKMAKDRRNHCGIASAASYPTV
Procedure: A fluorescence based assay was set up according to Barrett and Kirschke (Barrett et al., 1981, Meth. in Enz., 80:535).
After an incubation period of 6 minutes at room temperature, 1500 μl of 0.1% Brij 35 was added. The substrate Z-Phe-Arg-AMC (AMC is aminomethyl-coumarin) was added at a final concentration of either 2.5 μM or 5.0 μM.
The fluorescence of the free aminomethyl-coumarin was measured in an SLM 4800s fluorimeter by excitation at 370 nm and emission at 432 nm over a six minute time period. […] In order to calculate the velocities, a linear least squares analysis was performed over the initial linear part of the data. […]
These peptides were tested for inhibition of Cathepsin L activity using the assays described previously. Briefly, Cathepsin L (19 pM final as determined by active site titration using E-64, Barret & Kirschke, 1991) was added to 750 uL of assay buffer consisting of 340 nM sodium acetate--60 mM acetic acid (pH 5.5), 4 mM disodium EDTA, and 8 mM DTT. […] The fluorescence of the free aminomethylcoumarin was measured in an SLM 4800s fluorimeter at excitation of 370 nm and an emission at 432 nm over a 6 minute time period. Fluorescence was converted to uM AMC released by using a standard curve generated by plotting uM AMC vs. fluorescence, and plotted vs. time. […]
The target in experiment [4] is T1, human liver Cathepsin L.
Experiment [5] concerns the target T1, human liver Cathepsin L. The source holds these as a separate data set.
In experiment [6] the target is T1, human liver Cathepsin L. The source holds these as a separate data set.
The test system of a further experiment is cartilage degradation. As to conditions: rabbits, IL-1 injected into joint capsule; cited from earlier work.

For the molecule `CC(C)C[C@H](NC(=O)[C@H]1O[C@@H]1C(=O)O)C(=O)NCCCCN=C(N)N` (relative stereo) [E64, trans-epoxysuccinyl-L-leucylamido-(4-guanido)butane], the “inhibition of IL-1 stimulated cartilage proteoglycan degradation (in words)” value in experiment [1] is recorded as “did not work”.
Regarding `CC(C)CCNC(=O)[C@H](CC(C)C)NC(=O)[C@H]1O[C@@H]1C(=O)O` [Ep475], the “inhibition of IL-1 stimulated cartilage proteoglycan degradation (in words)” value in experiment [1] is “did not work”.
For YSLDEERHRRLMWEENKKKIEAH [p117], in experiment [2], the “% inhibition of proteoglycan release” value is “about 30%”. Moreover, at human liver Cathepsin L [3] (Cathepsin L 19 pM, 5.0 uM Z-Phe-Arg-NMec(AMC), Dixon plot V-/V+ vs. peptide concentration, read-out: i.c. 50 (synthetic peptides, Cathepsin L)), the IC50 was found to be 5.3 µM. For the same molecule, the “inhibitory activity of the peptides (in words)” value at human liver Cathepsin L [3] (summary in Example 7) is on record as “best activity”.
Consider “recombinant (murine) CTLA-2β, dimeric form”, for which, in the experiment with human liver Cathepsin L [4], the i.c. 50 in Cathepsin L Assay worked out at 1.1 nM.
As for “recombinant (murine) CTLA-2β, monomeric form”, in the experiment with human liver Cathepsin L [4], the i.c. 50 in Cathepsin L Assay was 18.2 nM. Further, the inhibition of hydrolysis of Z-Phe-Arg-AMC by Cathepsin L (fluorescence) with human liver Cathepsin L [5] worked out at 60%.
As for ENKKKIEAHNADYERGKTSFC [p089], the inhibition of hydrolysis of Z-Phe-Arg-NMec(AMC) by Cathepsin L (fluorescence) (% inhibition at 10 uM) in the experiment with human liver Cathepsin L [6] amounted to 25.
Regarding CRGEMAPDLPEYEDLG [p092], the i.c. 50 in the experiment with human liver Cathepsin L [6] was 41 µM.

B1: PN-1: large serine protease inhibitor PN-1 (43 KD) (protein, UniProt P07093 20-398, looked up)
Glia-derived nexin: SHFNPLSLEELGSNTGIQVFNQIVKSRPHDNIVISPHGIASVLGMLQLGADGRTKKQLAMVMRYGVNGVGKILKKINKAIVSKKNKDIVTVANAVFVKNASEIEVPFVTRNKDVFQCEVRNVNFEDPASACDSINAWVKNETRDMIDNLLSPDLIDGVLTRLVLVNAVYFKGLWKSRFQPENTKKRTFVAADGKSYQVPMLAQLSVFRCGSTSAPNDLWYNFIELPYHGESISMLIALPTESSTPLSAIIPHISTKTIDSWMSIMVPKRVQVILPKFTAVAQTDLKEPLKVLGITDMFDSSKANFAKITTGSENLHVSHILQKAKIEVSEDGTKASAATTAILIARSSPPWFIVDRPFLFFIRHNPTGAVLFMGQINKP
With B1, the “effect on IL-1 induced cartilage degradation (in words)” value with cartilage degradation is “can ameliorate this degradation”.
The molecule YSLDEERHRRLMWEENKKKIEAH [p117] showed an i.c. 50 with human liver Cathepsin L [6] of 5.3 µM.
